# Laboratory results as given in the supplement of paper PMC9732359.
# ± gives the uncertainty stated by the source.
# Experiment: protein stability index of a GFP-peptide fusion (yeast GPS) (PSI 1-4); higher = more stable; sorted into four equal gates, so the index is relative within each strain
# In short: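 For each peptide, the protein stability index sums the read frequency in every gate after multiplying it by the gate number. Read frequencies came from plasmids that were PCR-amplified from each gate and Illumina-sequenced, with reads assigned to strains by barcodes. The gates were four equal bins of GFP/Cherry fluorescence ratio applied to mid-log yeast in leucine-free medium carrying a pooled library of tiled 17-residue yeast protein peptides fused downstream of GFP on a Cherry-expressing plasmid.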
Sequence,protein stability index (doa10∆),protein stability index (pdr5∆),protein stability index (san1∆),protein stability index (ubr1∆)
SKVYFNNQSKEKADYED [RPN12],2.56 ± 0.076,2.64 ± 0.067,2.67 ± 0.098,2.48 ± 0.054
VAIGLNGKIWVKCEELS [RRP40],1.58 ± 0.2,2.25 ± 0.24,2.94 ± 0.16,1.73 ± 0.1
VTTFVFTGQGSQEQGMG [FAS1],3.46 ± 0.15,3.49 ± 0.13,3.48 ± 0.14,3.68 ± 0.18
NSLTVDGNNANYIYAGY [RPN14],2.87 ± 0.088,2.55 ± 0.078,2.42 ± 0.092,2.85 ± 0.049
ESLPQYVDFVPMYKELW [POP4],2.12 ± 0.061,2.45 ± 0.056,2.5 ± 0.074,2.64 ± 0.048
STTASGTTATGTGLFGQ [YGR119C/NUP57],3.18 ± 0.074,3.35 ± 0.067,3.27 ± 0.068,3.43 ± 0.055
FIRDELDENKWYKFNDD [UBP6],1.86 ± 0.063,2.15 ± 0.043,1.94 ± 0.096,1.97 ± 0.062
FSPVISQSLTSILVIVQ [SWI1],1.43 ± 0.048,1.66 ± 0.05,1.33 ± 0.076,1.33 ± 0.04
PINLHPSKLVITKLHLD [RPL26A],1.74 ± 0.058,2.2 ± 0.045,1.9 ± 0.062,1.85 ± 0.042
IQRLRLLREKQRVRNMR [YOR098C/NUP1],,1.28 ± 0.086,,1.41 ± 0.26
HEFFIANHDDQDDIDEM [SRP68],3.12 ± 0.056,2.64 ± 0.061,3.24 ± 0.04,3.23 ± 0.062
YDLVILKSGLPLSGLLF [YMR129W/POM152],3.61 ± 0.17,2.53 ± 0.13,3.51 ± 0.049,2.11 ± 0.18
IVNGTEKVILVQEQLSK [RET1],1.54 ± 0.13,2.22 ± 0.057,1.53 ± 0.11,2.29 ± 0.088
NLQPASVINNYLREDQM [NUT1],2.61 ± 0.075,3.08 ± 0.099,2.82 ± 0.094,2.93 ± 0.14
SFFSGLSPPEFLFHAIS [RPO31],2.07 ± 0.044,1.9 ± 0.05,1.93 ± 0.11,1.91 ± 0.041
VLLVLPFTDRSVVRGNT [COB],3.11 ± 0.14,3.31 ± 0.15,3.52 ± 0.07,3.34 ± 0.15
LEDKLRAVLTPLITRHC [RRP46],2.53 ± 0.059,2.2 ± 0.05,2.33 ± 0.064,2.44 ± 0.035
QLDKKNELQKFQALWQL [SMC1],,,2.58 ± 0.1,
DTKLKAHELQSEDVSRD [YIL149C/MLP2],2.77 ± 0.058,2.95 ± 0.055,3.03 ± 0.048,2.86 ± 0.047
EIPSEDQNEFLLERTRE [FAS2],3.33 ± 0.094,3.3 ± 0.12,3.35 ± 0.081,3.22 ± 0.079
ESDYEPNNETSVLSSKP [SIR3],2.99 ± 0.089,3.08 ± 0.11,3.02 ± 0.11,3.01 ± 0.07
RTPYLTSLKKIKDEIDD [SWI1],2.86 ± 0.16,2.66 ± 0.091,2.21 ± 0.12,2.62 ± 0.079
VILQSDLEEAYATQVKT [RPT3],2.2 ± 0.1,2.57 ± 0.069,2.3 ± 0.083,2.53 ± 0.068
QSISNENDVKPISIEAP [SWI3],2.55 ± 0.042,2.34 ± 0.044,2.42 ± 0.052,2.32 ± 0.037
GVAASQGSMSERPPYIL [SIR2],2.75 ± 0.11,3.08 ± 0.089,2.72 ± 0.097,3.16 ± 0.085
YLLPDDFHFSTDRITRL [BRN1],2.43 ± 0.056,2.5 ± 0.056,2.6 ± 0.063,2.79 ± 0.048
LMLEDTDGDSILYYDVL [BRR2],2.85 ± 0.074,3.17 ± 0.092,3.12 ± 0.067,3.1 ± 0.058

Sequence,protein stability index (doa10∆),protein stability index (pdr5∆),protein stability index (san1∆),protein stability index (ubr1∆)
RKSDQQDVLKGSSASSR [POP1],3.29 ± 0.12,3.06 ± 0.1,3.14 ± 0.071,3.31 ± 0.096
SKVTKKHGAKKVAKRTK [RPL27B],3.42 ± 0.27,3.02 ± 0.2,3.27 ± 0.2,3.26 ± 0.22
DVNSASKSESDSQIVTP [RRP4],3.17 ± 0.088,3.28 ± 0.073,3.06 ± 0.099,2.78 ± 0.1
RARVKAFPKDDRSKPVA [RPL3],2.85 ± 0.1,3.12 ± 0.1,3.4 ± 0.047,3.15 ± 0.083
ISQPKSMSGRISAKDMG [BRR2],3.1 ± 0.06,3.16 ± 0.055,3.08 ± 0.058,3.15 ± 0.046
NKKDKKKEEEEQLSEED [RPN1],3.55 ± 0.21,3.76 ± 0.23,3.28 ± 0.13,3.36 ± 0.15
NTCYLNATLQALYRVND [UBP6],2.25 ± 0.07,2.59 ± 0.069,2.69 ± 0.063,2.5 ± 0.055
LEHIDSKSEFAHRIMLT [FAS2],2.17 ± 0.063,2.19 ± 0.069,2.72 ± 0.075,2.25 ± 0.063
IGVRCYEAYPNTSLPPS [FAS1],2.29 ± 0.036,2.33 ± 0.032,2.59 ± 0.034,2.54 ± 0.028
QQTAQTQLEQQRQLLVQ [SNF5],3.12 ± 0.12,3.15 ± 0.14,,2.49 ± 0.072
QDMQLKIWSVKDGSNPR [RPN14],2.99 ± 0.097,2.86 ± 0.088,2.45 ± 0.1,2.62 ± 0.075
EPFTILGAVAGLIPYPH [RET1],2.17 ± 0.063,2.13 ± 0.051,2.13 ± 0.078,1.83 ± 0.043
PTRIRTKSSKEFFNTLR [RRI2],2.73 ± 0.13,3.01 ± 0.15,3.06 ± 0.081,2.91 ± 0.11
VDSKTKEPVDDKDVKAK [FAS2],2.31 ± 0.24,,2.28 ± 0.13,3.28 ± 0.16
LFQENDDDDDDDDEVDY [DSN1],2.94 ± 0.14,2.71 ± 0.1,2.97 ± 0.091,3.06 ± 0.15
PSEDVAALKKTRKAARP [RPL6A],2.83 ± 0.062,3.02 ± 0.048,2.95 ± 0.039,3.05 ± 0.047
LPGDMLAVCDELGNMTM [SIN4],2.76 ± 0.071,2.77 ± 0.072,2.78 ± 0.089,2.66 ± 0.085
KVDIPLEVVQYIEDGRN [NUT2],2.46 ± 0.066,1.59 ± 0.065,1.34 ± 0.094,1.59 ± 0.046
YYKKFLIEPLPTESYLQ [BRR2],1.85 ± 0.055,2.58 ± 0.066,1.78 ± 0.13,2.48 ± 0.055
QFSLPNGDNSTTTNTDQ [SNF12],2.47 ± 0.047,2.2 ± 0.055,2.318 ± 0.014,2.31 ± 0.05
GLPLGIAEEKMWSQFQT [YGR119C/NUP57],2.84 ± 0.14,,,3.05 ± 0.19
GYDPIVSTRAIDLLWKG [PRP28],2.12 ± 0.18,2.03 ± 0.091,1.47 ± 0.11,2.6 ± 0.079
AHEISQGVYGAVYETLI [BRR2],3.33 ± 0.082,3.11 ± 0.07,3.16 ± 0.061,3.37 ± 0.082
DKFFTLSAENIEERLVA [SCL1],3.01 ± 0.074,3.01 ± 0.084,3.06 ± 0.082,3.02 ± 0.069
SILESSMFLRIDYSNSQ [RGR1],2.42 ± 0.083,2.14 ± 0.064,1.59 ± 0.095,2.41 ± 0.063
VSLLKKNWQNVGSLVVK [RPL1A],1.15 ± 0.049,1.39 ± 0.056,1.36 ± 0.12,1.32 ± 0.053
SSYMGKHWTEKSLHEMN [PRP28],3.23 ± 0.14,3.14 ± 0.23,3.07 ± 0.19,
